Assay results taken from EP4803541A1 (Changchun Genescience Pharmaceutical Co., Ltd., dated 2026).
Residue numbers refer to the chain shown, from its start. Names may count otherwise.

Key:
[1] = molecular target: rhGH protein (UniProt: P01241) (human) (UniProt P01241); assay: ELISA on coated rhGH, anti-6*His HRP; sample after 0.5M NaOH 24h, against WT; design: unit not given beside the values
[2] = molecular target: GH (GH stock solution) (UniProt P01241); assay: affinity chromatography, VHH-conjugated medium loaded with GH stock solution; medium in 0.1M NaOH 0h
GH (GH stock solution), sequence (P01241 27-217 limits assumed): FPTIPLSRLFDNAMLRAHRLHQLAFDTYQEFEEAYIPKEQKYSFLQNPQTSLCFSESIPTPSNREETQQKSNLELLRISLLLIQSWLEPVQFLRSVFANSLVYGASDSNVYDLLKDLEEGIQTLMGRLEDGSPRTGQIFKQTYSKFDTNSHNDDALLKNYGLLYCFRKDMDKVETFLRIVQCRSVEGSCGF

[3] = molecular target: GH (GH stock solution) (UniProt P01241); assay: loss of dynamic binding capacity of the conjugated medium for GH after 0.5M NaOH 24h
[4] = molecular target: GH (GH stock solution) (UniProt P01241); assay: affinity chromatography, VHH-conjugated medium loaded with GH stock solution; medium in 0.1M NaOH 32h
[5] = molecular target: GH (GH stock solution) (UniProt P01241); assay: loss of dynamic binding capacity of the conjugated medium for GH after 0.1M NaOH 32h
[6] = molecular target: GH (GH stock solution) (UniProt P01241); assay: affinity chromatography, VHH-conjugated medium loaded with GH stock solution; medium in 0.5M NaOH 24h
[7] = molecular target: GH (GH stock solution) (UniProt P01241); assay: affinity chromatography, VHH-conjugated medium loaded with GH stock solution; medium in 0.1M NaOH 24h
[8] = molecular target: GH (GH stock solution) (UniProt P01241); assay: affinity chromatography, VHH-conjugated medium loaded with GH stock solution; medium in 0.5M NaOH 0h
[9] = molecular target: GH (GH stock solution) (UniProt P01241); assay: affinity chromatography, VHH-conjugated medium loaded with GH stock solution; medium in 0.5M NaOH 6h
[10] = molecular target: T1, rhGH protein (UniProt: P01241) (human, UniProt P01241 27-217); assay: ELISA on coated rhGH; sample after 0.5M NaOH 24h
T1 construct: Coated at 5 ug/ml in the ELISA; also called human growth hormone
T1 sequence (P01241 27-217 limits assumed, one chain of several): as the sequence (P01241 27-217 limits assumed) above

[11] = molecular target: T1, rhGH protein (UniProt: P01241); assay: ELISA on coated rhGH, anti-6*His HRP; sample after 0.3 M NaOH 24h

rhGH protein (UniProt: P01241) (human) (UniProt P01241), sequence (P01241 27-217 limits assumed, one chain of several): as the sequence (P01241 27-217 limits assumed) above

B1: M11 (First round) (VHH)
VHH: QVQLVESGGGLAQAGGSLRLSCAVSGMPEFARAMGWFRQAPGKERELLAAIEGIGATTYYADSVKGRFTISRDDAANTVLLQMNSLKPDDTAVYYCAAAFSVTIPTRARHWVDWGQGTLVTVSS
[1]
  EC50 against that of the WT after 0.5M alkali (% higher than WT): 50

B2: M20 (First round) (VHH)
VHH: B1 VHH with L48V, Q116P
[2]
  dynamic binding capacity at 10% breakthrough: 19.6
[3]
  residual DBC (a decrease of DBC): < 49%
[4]
  dynamic binding capacity at 10% breakthrough: 16.9
[5]
  DBC decay rate: < 6%
[6]
  dynamic binding capacity at 10% breakthrough: 10.2
[7]
  dynamic binding capacity at 10% breakthrough: 18
[8]
  dynamic binding capacity at 10% breakthrough: 19.6
[1]
  EC50 against that of the WT after 0.5M alkali (% higher than WT): 50
[9]
  dynamic binding capacity at 10% breakthrough: 14.3

B3: M22 (First round) (VHH)
VHH: B1 VHH with L11K, Q116P
[1]
  EC50 against that of the WT after 0.5M alkali (% higher than WT): 50

B4: M24 (First round) (VHH)
VHH: B1 VHH with W111F, Q116P
[1]
  EC50 against that of the WT after 0.5M alkali (% higher than WT): 50

B5: M53 (Second round) (VHH)
VHH: B1 VHH with A56D, R109E, Q116P
notes: Entry already carries A57D; R100eE); tail DDDDK-SGGGGS-HHHHHH
[10]
  binding result: binds

B6: M8 (First round) (VHH)
VHH: B1 VHH with D113Y, Q116P
notes: tail DDDDK-SGGGGS-HHHHHH
[11]
  binding result: binds

B7: M25 (First round) (VHH)
VHH: B1 VHH with V112D, Q116P
notes: tail DDDDK-SGGGGS-HHHHHH
[11]
  binding result: binds

B8: M29 (First round) (VHH)
VHH: B1 VHH with T57K, Q116P
notes: tail DDDDK-SGGGGS-HHHHHH
[11]
  binding result: binds

B9: M31 (First round) (VHH)
VHH: B1 VHH with R109E, Q116P
notes: tail DDDDK-SGGGGS-HHHHHH
[11]
  binding result: binds

B10: M59 (Second round) (VHH)
VHH: B1 VHH with P28T, A56D, Q116P
notes: Entry already carries A57D; A55D); tail DDDDK-SGGGGS-HHHHHH
[10]
  binding result: binds

B11: M64 (Second round) (VHH)
VHH: B1 VHH with A14P, Q116P
notes: Entry already carries A15P; tail DDDDK-SGGRGS-HHHHHH
[1]
  EC50 against that of the WT after 0.5M alkali (% higher than WT): 50
[10]
  binding result: binds

B12: M66 (Second round) (VHH)
VHH: B1 VHH with A14P, P28T, Q116P
notes: Entry already carries P29T; P28T); tail DDDDK-SGGGGS-HHHHHH
[10]
  binding result: binds

B13: M67 (Second round) (VHH)
VHH: B1 VHH with A14P
notes: Entry already carries A15P; P105Q); tail DDDDK-SGGGGS-HHHHHH
[2]
  dynamic binding capacity at 10% breakthrough: 15.9
[4]
  dynamic binding capacity at 10% breakthrough: 14.9
[6]
  dynamic binding capacity at 10% breakthrough: 4.23
[7]
  dynamic binding capacity at 10% breakthrough: 16.2
[8]
  dynamic binding capacity at 10% breakthrough: 15.9
[10]
  binding result: binds
[9]
  dynamic binding capacity at 10% breakthrough: 10.2

B14: M68 (Second round) (VHH)
VHH: B1 VHH with A14P, R19T, Q116P
notes: Entry already carries A15P; R19T); tail DDDDK-SGGGGS-HHHHHH
[2]
  dynamic binding capacity at 10% breakthrough: 15.9
[4]
  dynamic binding capacity at 10% breakthrough: 15.4
[6]
  dynamic binding capacity at 10% breakthrough: 5.41
[7]
  dynamic binding capacity at 10% breakthrough: 16.2
[8]
  dynamic binding capacity at 10% breakthrough: 15.3
[10]
  binding result: binds
[9]
  dynamic binding capacity at 10% breakthrough: 12.2

B15: M69 (Second round) (VHH)
VHH: B1 VHH with P28T, Q116P
notes: Entry already carries P29T; tail DDDDK-SGGRGS-HHHHHH
[1]
  EC50 against that of the WT after 0.5M alkali (% higher than WT): 50
[10]
  binding result: binds

B16: M70 (Second round) (VHH)
VHH: B1 VHH with A14P, R109E, Q116P
notes: Entry already carries A15P; R100eE); tail DDDDK-SGGGGS-HHHHHH
[10]
  binding result: binds

B17: M71 (Second round) (VHH)
VHH: B1 VHH with A56D, R109E
notes: Entry already carries A57D; P117Q; R100eE; P105Q); tail DDDDK-SGGGGS-HHHHHH
[10]
  binding result: binds

B18: M72 (Second round) (VHH)
VHH: B1 VHH with A56D, W111F, D113Y, Q116P
notes: Entry already carries A57D; D114Y; W100gF; D102Y); tail DDDDK-SGGGGS-HHHHHH
[10]
  binding result: binds

B19: M74 (Second round) (VHH)
VHH: B1 VHH with A56D, R109E, Q116P
notes: Entry already carries A57D; G134R; R100eE); tail DDDDK-SGGRGS-HHHHHH
[2]
  dynamic binding capacity at 10% breakthrough: 15
[3]
  residual DBC (a decrease of DBC): < 49%
[4]
  dynamic binding capacity at 10% breakthrough: 15.4
[5]
  DBC decay rate: < 6%
[6]
  dynamic binding capacity at 10% breakthrough: 8.24
[7]
  dynamic binding capacity at 10% breakthrough: 15.8
[8]
  dynamic binding capacity at 10% breakthrough: 14.7
[10]
  binding result: binds
[9]
  dynamic binding capacity at 10% breakthrough: 13.2

B20: M75 (Second round) (VHH)
VHH: B1 VHH with A56D, R109E, D113Y, Q116P
notes: Entry already carries A57D; R110E; R100eE; D102Y); tail DDDDK-SGGGGS-HHHHHH
[10]
  binding result: binds

B21: M76 (Second round) (VHH)
VHH: B1 VHH with A56D, W111F, Q116P
notes: Entry already carries A57D; G134R; W100gF); tail DDDDK-SGGRGS-HHHHHH
[10]
  binding result: binds

B22: M77 (Second round) (VHH)
VHH: B1 VHH with A56D, R109E, W111F, Q116P
notes: Entry already carries A57D; R110E; R100eE; W100gF); tail DDDDK-SGGGGS-HHHHHH
[10]
  binding result: binds

B23: M78 (Second round) (VHH)
VHH: B1 VHH with A56D, D113Y, Q116P
notes: Entry already carries A57D; G134R; D102Y); tail DDDDK-SGGRGS-HHHHHH
[2]
  dynamic binding capacity at 10% breakthrough: 16.3
[3]
  residual DBC (a decrease of DBC): < 49%
[4]
  dynamic binding capacity at 10% breakthrough: 15.4
[5]
  DBC decay rate: < 6%
[6]
  dynamic binding capacity at 10% breakthrough: 9.06
[7]
  dynamic binding capacity at 10% breakthrough: 16.3
[8]
  dynamic binding capacity at 10% breakthrough: 16.3
[10]
  binding result: binds
[9]
  dynamic binding capacity at 10% breakthrough: 13.5

B24: M79 (Second round) (VHH)
VHH: B1 VHH with L48V, A56D, R109E, Q116P
notes: Entry already carries A57D; R110E; A55D; R100eE); tail DDDDK-SGGGGS-HHHHHH
[10]
  binding result: binds

B25: M81 (Second round) (VHH)
VHH: B1 VHH with A56D, R109E
notes: Entry already carries A57D; G134R; P117Q; R100eE; P105Q); tail DDDDK-SGGRGS-HHHHHH
[10]
  binding result: binds

B26: M82 (Second round) (VHH)
VHH: B1 VHH with A56D, R109E, D113Y, Q116P
notes: Entry already carries A57D; G134R; R110E; R100eE; D102Y); tail DDDDK-SGGRGS-HHHHHH
[10]
  binding result: binds

B27: M83 (Second round) (VHH)
VHH: B1 VHH with A56D, R109E, W111F
notes: Entry already carries A57D; P117Q; R110E; R100eE; W100gF; P105Q); tail DDDDK-SGGGGS-HHHHHH
[10]
  binding result: binds

B28: M88 (Second round) (VHH)
VHH: B1 VHH with L48V, A56D, R109E, Q116P
notes: Entry already carries A57D; G134R; R110E; A55D; R100eE); tail DDDDK-SGGRGS-HHHHHH
[10]
  binding result: binds

B29: M89 (Second round) (VHH)
VHH: B1 VHH with A56D, R109E, W111F, Q116P
notes: Entry already carries A57D; G134R; R110E; R100eE; W100gF); tail DDDDK-SGGRGS-HHHHHH
[10]
  binding result: binds

B30: M28 (First round) (VHH)
VHH: B1 VHH with R19T, Q116P
[1]
  EC50 against that of the WT after 0.5M alkali (% higher than WT): 50

B31: M33 (First round) (VHH)
VHH: B1 VHH with A56D, Q116P
[1]
  EC50 against that of the WT after 0.5M alkali (% higher than WT): 50

B32: M34 (First round) (VHH)
VHH: B1 VHH with N77S, Q116P
[1]
  EC50 against that of the WT after 0.5M alkali (% higher than WT): 50

B33: M45 (First round) (VHH)
VHH: B1 VHH with Q116P
[2]
  dynamic binding capacity at 10% breakthrough: 18.2
[4]
  dynamic binding capacity at 10% breakthrough: 16.2
[6]
  dynamic binding capacity at 10% breakthrough: 4.29
[7]
  dynamic binding capacity at 10% breakthrough: 17.4
[8]
  dynamic binding capacity at 10% breakthrough: 18.2
[1]
  EC50 against that of the WT after 0.5M alkali (% higher than WT): 50
[9]
  dynamic binding capacity at 10% breakthrough: 7.6

B34: WT (with tag), unmodified GH single-domain antibody molecule (VHH)
VHH: B1 VHH with Q116P
[2]
  dynamic binding capacity at 10% breakthrough: 22.3
[3]
  residual DBC (a decrease of DBC): 85%
[4]
  dynamic binding capacity at 10% breakthrough: 14.7
[5]
  DBC decay rate: 35%
[6]
  dynamic binding capacity at 10% breakthrough: 3.39
[7]
  dynamic binding capacity at 10% breakthrough: 16.2
[8]
  dynamic binding capacity at 10% breakthrough: 22.3
[9]
  dynamic binding capacity at 10% breakthrough: 5.78
